From article PMC3847324, “Jun dimerization protein 2 is a critical component of the Nrf2/MafK complex regulating the response to ROS homeostasis”

Experiments:
IVT-Nrf2;IVT-JDP2 = biological target: T1, IVT-Nrf2;IVT-JDP2 (;mouse, UniProt Q60795;P97875 1-597;1-163, |); experiment: EMSA; EMSA: 5 ug GST fusion or 10 ng IVT protein, 25 C 30 min; 5% native PAGE in 0.5x TBE at 4 C; binding buffer, salt and pH not given; settings: protein: ivt;ivt; tags: ;; copies: 1;1; label: 32P 5' end (T4 kinase) as probe; blunt
T1 sequence 1: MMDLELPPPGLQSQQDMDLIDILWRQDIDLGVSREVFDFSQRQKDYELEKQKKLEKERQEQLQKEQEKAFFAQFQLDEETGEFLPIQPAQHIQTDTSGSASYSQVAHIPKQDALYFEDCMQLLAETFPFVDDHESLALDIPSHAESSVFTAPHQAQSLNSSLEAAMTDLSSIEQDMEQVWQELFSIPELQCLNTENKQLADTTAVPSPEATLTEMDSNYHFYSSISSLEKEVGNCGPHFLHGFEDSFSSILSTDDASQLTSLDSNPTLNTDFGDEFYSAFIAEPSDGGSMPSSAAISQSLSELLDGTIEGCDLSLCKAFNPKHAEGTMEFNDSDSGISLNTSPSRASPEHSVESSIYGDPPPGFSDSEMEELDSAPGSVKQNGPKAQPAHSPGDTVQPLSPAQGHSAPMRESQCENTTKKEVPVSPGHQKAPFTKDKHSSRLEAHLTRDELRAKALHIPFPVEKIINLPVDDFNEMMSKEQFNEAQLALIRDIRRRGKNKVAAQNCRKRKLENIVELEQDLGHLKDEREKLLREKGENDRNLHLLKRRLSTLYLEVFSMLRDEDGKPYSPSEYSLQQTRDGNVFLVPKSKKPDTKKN
T1 sequence 2: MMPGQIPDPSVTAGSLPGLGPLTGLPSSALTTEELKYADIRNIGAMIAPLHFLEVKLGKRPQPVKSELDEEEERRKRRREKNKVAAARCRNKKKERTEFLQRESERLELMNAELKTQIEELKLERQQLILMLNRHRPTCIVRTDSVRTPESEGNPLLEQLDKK

[1] = biological target: IVT-Nrf2;IVT-JDP2;IVT-MafK (;mouse;rat, UniProt Q60795;P97875;Q8K4B3 1-597;1-163;1-156, ||); experiment: EMSA; large complex with higher DNA-binding activity; EMSA: 5 ug GST fusion or 10 ng IVT protein, 25 C 30 min; 5% native PAGE in 0.5x TBE at 4 C; binding buffer, salt and pH not given; settings: tags: ;;, label: 32P 5' end (T4 kinase) as probe, blunt

B1: human NQO1-ARE WT (dsDNA)
DNA 1: CAGTCACAGTGACTCAGCAGAATCT
DNA 2: AGATTCTGCTGAGTCACTGTGACTG
Q: Does B1 bind (IVT-Nrf2;IVT-JDP2)?
A: Result: binds

Q: Does B1 bind [1]?
A: Result: binds
